The target in the assay is CdiI^YPIII immunity protein from Yersinia pseudotuberculosis YPIII, His6-tagged (Yersinia pseudotuberculosis YPIII). In words: BLI. Background: Biolayer interferometry detects binding as a change in optical thickness at a sensor tip.

Usually Kd stands for the constant that tells how readily two partners part at equilibrium. A higher Kd goes with a looser complex.

In the case of “CdiA-CT^YPIII, C-terminal toxin domain of CdiA from Yersinia pseudotuberculosis YPIII (domain or fragment)”, the Kd is 16 nM.

The values are drawn from article PMC4658667.
